Results reported in patent publication US20070003923A1 (Scripps Research, published 2007).

T1: Ad5Δs truncated Ad5 fiber (deletion of the 14 central shaft repeats), on pseudotyped Ad5 particles (adenovirus serotype 5 (Ad5), UniProt P11818 1-581)
T1 construct: also called Ad5As; pLP32
T1 sequence: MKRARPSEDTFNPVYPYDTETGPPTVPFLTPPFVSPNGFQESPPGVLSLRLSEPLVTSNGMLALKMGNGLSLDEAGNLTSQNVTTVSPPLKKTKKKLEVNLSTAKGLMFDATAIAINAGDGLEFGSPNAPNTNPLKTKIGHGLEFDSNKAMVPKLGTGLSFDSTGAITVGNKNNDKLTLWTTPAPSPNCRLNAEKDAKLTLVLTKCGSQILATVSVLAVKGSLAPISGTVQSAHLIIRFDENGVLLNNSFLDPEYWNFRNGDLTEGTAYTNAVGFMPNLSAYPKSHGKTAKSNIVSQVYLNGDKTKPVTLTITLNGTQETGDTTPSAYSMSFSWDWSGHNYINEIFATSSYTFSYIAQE

B1: wild type Ad5 fiber protein, on Ad5-pseudotyped particles (Ad5.GFP.ΔF/5F) (other)
chain: MKRARPSEDTFNPVYPYDTETGPPTVPFLTPPFVSPNGFQESPPGVLSLRLSEPLVTSNGMLALKMGNGLSLDEAGNLTSQNVTTVSPPLKKTKSNINLEISAPLTVTSEALTVAAAAPLMVAGNTLTMQSQAPLTVHDSKLSIATQGPLTVSEGKLALQTSGPLTTTDSSTLTITASPPLTTATGSLGIDLKEPIYTQNGKLGLKYGAPLHVTDDLNTLTVATGPGVTINNTSLQTKVTGALGFDSQGNMQLNVAGGLRIDSQNRRLILDVSYPFDAQNQLNLRLGQGPLFINSAHNLDINYNKGLYLFTASNNSKKLEVNLSTAKGLMFDATAIAINAGDGLEFGSPNAPNTNPLKTKIGHGLEFDSNKAMVPKLGTGLSFDSTGAITVGNKNNDKLTLWTTPAPSPNCRLNAEKDAKLTLVLTKCGSQILATVSVLAVKGSLAPISGTVQSAHLIIRFDENGVLLNNSFLDPEYWNFRNGDLTEGTAYTNAVGFMPNLSAYPKSHGKTAKSNIVSQVYLNGDKTKPVTLTITLNGTQETGDTTPSAYSMSFSWDWSGHNYINEIFATSSYTFSYIAQE
B2: Coxsackie-Adenovirus Receptor (CAR) on A549 lung carcinoma cells (receptor)
chain: LSITTPEEMIEKAKGETAYLPCKFTLSPEDQGPLDIEWLISPADNQKVDQVIILYSGDKIYDDYYPDLKGRVHFTSNDLKSGDASINVTNLQLSDIGTYQCKVKKAPGVANKKIHLVVLVKPSGARCYVDGSEEIGSDFKIKCEPKEGSLPLQYEWQKLSDSQKMPTSWLAEMTSSVISVKNASSEYSGTYSCTVRNRVGSDQCLLRLNVVPPSNKAGLIAGAIIGTLLALALIGLIIFCCRKKRREEKYEKEVHHDIREDVPPPKSRTSTARSYIGSNHSSLGSMSPSNMEGYSKTQYNQVPSEDFERTPQSPTLPPAKVAAPNLSRMGAIPVMIPAQSKDGSIV
notes: whole, on cells; The assays were run on A549 cells, which were not transfected with CAR
B3: Ad37s/Ad5k chimeric fiber (Ad37 shaft fused to the Ad5 knob), on pseudotyped Ad5 particles (other)
chain: MKRARPSEDDFNPVYPYGYARNQNIPFLTPPFVSSDGFKNFPPGVLSLKLADPITITNGDVSLKVGGGLTLQDGSLTVNPKAPLQVNTDKKLELAYDNPFESSANKLSLKVGHGLKVLDEKSAAGLKDLIGKLVVLTGKGIGTENLENTDGSSRGIGINVRAREGLTFDNDGYLVAWNPKYDTRTLWTTPAPSPNCRLNAEKDAKLTLVLTKCGSQILATVSVLAVKGSLAPISGTVQSAHLIIRFDENGVLLNNSFLDPEYWNFRNGDLTEGTAYTNAVGFMPNLSAYPKSHGKTAKSNIVSQVYLNGDKTKPVTLTITLNGTQETGDTTPSAYSMSFSWDWSGHNYINEIFATSSYTFSYIAQE
notes: Built from Ad37 1-184, with the first seven residues changed to those of Ad5, and Ad5 400-581; also called pLP13
B4: Ad5s/Ad37s chimeric fiber (Ad5 fiber with the 3rd and 21st repeats replaced with the corresponding repeats of Ad37), on pseudotyped Ad5 particles (other)
chain: MKRARPSEDTFNPVYPYDTETGPPTVPFLTPPFVSPNGFQESPPGVLSLRLSEPLVTSNGMLALKMGNGLSLDEAGSLTVNPKAPLQVNTDSNINLEISAPLTVTSEALTVAAAAPLMVAGNTLTMQSQAPLTVHDSKLSIATQGPLTVSEGKLALQTSGPLTTTDSSTLTITASPPLTTATGSLGIDLKEPIYTQNGKLGLKYGAPLHVTDDLNTLTVATGPGVTINNTSLQTKVTGALGFDSQGNMQLNVAGGLRIDSQNRRLILDVSYPFDAQNQLNLRLGQGPLFINSAHNLDINYNKGLYLFTASNNSKKLEVNLSTAKGLMFDATAIAINAGDGLEFGSPNAPNTNPLKTKIGHGLEFDSNIGINVRAREGLTFDNDGAITVGNKNNDKLTLWTTPAPSPNCRLNAEKDAKLTLVLTKCGSQILATVSVLAVKGSLAPISGTVQSAHLIIRFDENGVLLNNSFLDPEYWNFRNGDLTEGTAYTNAVGFMPNLSAYPKSHGKTAKSNIVSQVYLNGDKTKPVTLTITLNGTQETGDTTPSAYSMSFSWDWSGHNYINEIFATSSYTFSYIAQE
notes: also called 'straightened' Ad5 fiber shaft; pLP43

Key:
[1] = target: B2; assay: cell-based or functional assay
[2] = target: B1; assay: virus attachment to A549 cells at 4 C, bound genomes by TaqMan PCR; non-specific binding set by excess Ad5 knob
[3] = target: T1, Ad5Δs truncated Ad5 fiber (deletion of …); assay: as above
[4] = target: B2; assay: as above

B1
infection of A549 cells by GFP vector particles (FACS) [1]: ~8 fold

B2
binding result [2]: binds
binding result [3]: binds

B3
binding result [4]: binds

B4
binding result [4]: binds
